Reference: US20240164355A1 (VANDERBILT UNIVERSITY, published 2024)

T1: CidB (CidB^wPip, wPa_0283), co-expressed with His6-CidA from the full operon in E. coli (Wolbachia pipientis, wPip strain)
T1 construct: also called toxin
T1 chain: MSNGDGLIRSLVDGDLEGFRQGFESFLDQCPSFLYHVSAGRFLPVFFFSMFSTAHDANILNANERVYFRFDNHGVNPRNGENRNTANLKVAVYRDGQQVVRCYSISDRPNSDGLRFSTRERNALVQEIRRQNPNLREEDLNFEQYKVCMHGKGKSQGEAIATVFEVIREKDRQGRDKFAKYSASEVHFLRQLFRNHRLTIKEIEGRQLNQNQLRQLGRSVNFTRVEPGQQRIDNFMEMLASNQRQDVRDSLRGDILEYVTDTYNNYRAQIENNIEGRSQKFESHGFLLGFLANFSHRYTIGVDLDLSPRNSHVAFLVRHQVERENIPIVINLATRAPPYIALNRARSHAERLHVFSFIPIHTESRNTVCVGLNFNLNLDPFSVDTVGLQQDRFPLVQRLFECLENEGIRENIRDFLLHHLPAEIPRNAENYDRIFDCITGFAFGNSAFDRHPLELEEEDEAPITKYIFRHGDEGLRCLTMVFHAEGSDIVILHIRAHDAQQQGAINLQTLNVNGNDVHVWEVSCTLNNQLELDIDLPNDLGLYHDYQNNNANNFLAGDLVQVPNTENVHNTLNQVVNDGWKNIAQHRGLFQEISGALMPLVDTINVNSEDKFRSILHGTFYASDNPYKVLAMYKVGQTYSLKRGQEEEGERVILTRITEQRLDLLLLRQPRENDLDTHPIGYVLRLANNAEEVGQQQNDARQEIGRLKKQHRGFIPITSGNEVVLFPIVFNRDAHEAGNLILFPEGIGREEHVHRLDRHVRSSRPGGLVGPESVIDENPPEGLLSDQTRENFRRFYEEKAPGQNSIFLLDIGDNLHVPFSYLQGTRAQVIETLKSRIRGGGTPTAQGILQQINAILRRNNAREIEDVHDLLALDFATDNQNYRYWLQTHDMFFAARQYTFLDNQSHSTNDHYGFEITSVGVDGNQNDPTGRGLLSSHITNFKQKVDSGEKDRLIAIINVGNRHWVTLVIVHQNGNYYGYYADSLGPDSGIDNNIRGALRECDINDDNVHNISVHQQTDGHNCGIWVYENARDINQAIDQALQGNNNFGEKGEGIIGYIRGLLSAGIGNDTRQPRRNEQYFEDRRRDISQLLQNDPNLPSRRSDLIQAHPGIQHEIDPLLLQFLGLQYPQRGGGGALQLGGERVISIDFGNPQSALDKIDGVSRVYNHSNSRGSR

T2: CinB (CinB^wPip, wPa_0295), co-expressed with His6-CinA from the full operon in E. coli (Wolbachia pipientis, wPip strain)
T2 construct: also called putative DUF1703 nuclease
T2 chain: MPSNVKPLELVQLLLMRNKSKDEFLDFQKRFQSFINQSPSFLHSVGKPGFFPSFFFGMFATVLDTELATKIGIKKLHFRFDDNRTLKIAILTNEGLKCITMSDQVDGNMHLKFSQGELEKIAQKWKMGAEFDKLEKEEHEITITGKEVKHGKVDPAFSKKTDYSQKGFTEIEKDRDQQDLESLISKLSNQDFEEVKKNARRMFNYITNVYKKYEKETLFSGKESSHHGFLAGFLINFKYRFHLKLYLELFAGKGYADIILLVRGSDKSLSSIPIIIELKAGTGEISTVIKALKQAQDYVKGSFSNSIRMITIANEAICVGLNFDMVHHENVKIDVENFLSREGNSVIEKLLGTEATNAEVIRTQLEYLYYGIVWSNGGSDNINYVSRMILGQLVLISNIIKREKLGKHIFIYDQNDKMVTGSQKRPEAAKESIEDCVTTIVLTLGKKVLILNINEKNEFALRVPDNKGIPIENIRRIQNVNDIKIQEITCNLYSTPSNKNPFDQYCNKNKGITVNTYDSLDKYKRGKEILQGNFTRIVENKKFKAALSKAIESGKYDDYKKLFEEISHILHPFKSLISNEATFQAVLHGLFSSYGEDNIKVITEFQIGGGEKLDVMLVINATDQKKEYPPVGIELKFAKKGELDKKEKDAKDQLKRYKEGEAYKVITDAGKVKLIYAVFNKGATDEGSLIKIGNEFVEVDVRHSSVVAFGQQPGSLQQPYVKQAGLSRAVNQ

B1: His6-CidA (CidA^wPip, wPa_0282, N-terminally His6-tagged) (other)
chain: MPTQKELRDTMSKKLQEAIKHPDPAVVAGRKSAIKRWVGVLQDNFMEHIKYFKGDKLKFLHNVFQDEGCWSGVRLDNAALGQRFTEEKIGGIDNPLRKYEMACSYCVVDKIHPLFQKRFESYRNKFPPGAFDGKTETEFGKYVRNSLLDSIKRKGPVFDFWIDRESGELKKYDAVEGFDSAVKFKWSEGVEYFYNHLKEEDKEKKLTEAILALSRVQSVEKDAPILDFCVNKIVDKDTLLQKLSQKDKGVYSLFAELIESCFFDTVHDLVQCWCYKEVSAGGDHSEKIFSQRDYELFLSSLSDTMLKNPELSVQARSLIMEFWECGSLYQYRKAAVNTSNYTVPTSGVFAELIVNWRREDIYKTDEEKEIEKKEILDMMSFAKDCFPEKFELFKKLIIRDLRLCGREGKRVNVDYGLFAEELFSELEKTILPPGPVGDGPCSNLRSRSKAHGSKKTTLPVDDSPQSELGTPSVSGVSSYKKKSVFTLSGNK
notes: also called His6-tagged CidA; antidote
B2: His6-CinA (CinA^wPip, wPa_0294, His6-tagged) (other)
chain: MESGLDHNYNKILDILKGAIKGDDNQVKARKHLRVERWLRAYIQLIEDFDEEKLIFFSDIFSDNSCWDGIKLKNKAVGERLTEEKNKNGKENPLDLADRYYLACKYCLEDKIPGLFEQVFMRFKRSAFEEDGSDDDLRRELLENIEETSPIEAFWSFLIDKQIGKLNEYKSVEGLQKSIQINSNKNWEEGIEFFYNKLHNDSSISSQDKDDLLIEAALSAVKGYKEVDTIEFCLSKMDDEQKKKLLDRDYKENTYYAVLNVLVGQYYFDSFMELSRLCSQIECERYTTFLSSLSDQVLKNPDLSEETKKCMMNVWERIIKLKTQDRGEQSISSIFVDYSVTYTIANLIVDPSRQGVSKEEILGKILKHVKEMSGEEMIKVKDSVLSKIQLFHGGKKLQLGEQVFSKLAQEASKESILREAGDTLPQSSLSTTDTPYNIKSLSHSK

Legend:
[1] = biological target: T1, CidB (CidB^wPip, wPa_0283), …; assay: summary of the pulldown experiments of Example 2
[2] = biological target: T2, CinB (CinB^wPip, wPa_0295), …; assay: summary of the pulldown experiments of Example 2

| Binder | binding result [1] | binding result [2] |
| --- | --- | --- |
| B1 | binds |  |
| B2 |  | binds |
